The record followed here is paper PMC10149931, “Wiskott-Aldrich syndrome protein interacts and inhibits diacylglycerol kinase alpha promoting IL-2 induction” (Frontiers in Immunology, 2023).

This assay deals with myc-DGKα (UniProt P23743 1-735). Description: cell-based or functional assay.
myc-DGKα, sequence (P23743 whole entry): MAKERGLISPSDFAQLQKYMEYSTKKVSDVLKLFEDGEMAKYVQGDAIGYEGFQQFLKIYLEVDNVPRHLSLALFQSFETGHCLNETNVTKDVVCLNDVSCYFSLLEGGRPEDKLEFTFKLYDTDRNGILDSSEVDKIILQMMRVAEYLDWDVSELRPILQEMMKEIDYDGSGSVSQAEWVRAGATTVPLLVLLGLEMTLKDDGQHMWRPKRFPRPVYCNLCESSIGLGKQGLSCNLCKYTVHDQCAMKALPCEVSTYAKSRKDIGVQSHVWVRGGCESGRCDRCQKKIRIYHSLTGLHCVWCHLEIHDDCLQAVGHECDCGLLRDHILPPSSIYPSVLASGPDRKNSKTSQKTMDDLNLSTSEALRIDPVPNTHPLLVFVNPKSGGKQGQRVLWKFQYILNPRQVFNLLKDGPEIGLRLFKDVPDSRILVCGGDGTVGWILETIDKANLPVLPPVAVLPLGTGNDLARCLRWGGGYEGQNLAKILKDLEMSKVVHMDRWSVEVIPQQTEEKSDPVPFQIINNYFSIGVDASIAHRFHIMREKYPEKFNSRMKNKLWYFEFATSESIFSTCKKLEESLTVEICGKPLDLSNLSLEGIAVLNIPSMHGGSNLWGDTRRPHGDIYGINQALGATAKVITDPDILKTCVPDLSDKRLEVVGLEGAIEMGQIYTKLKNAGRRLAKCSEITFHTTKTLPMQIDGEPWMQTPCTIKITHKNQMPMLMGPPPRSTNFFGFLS

B1: FLAG-WASp (natural protein, UniProt P42768 1-502, looked up)
chain: MSGGPMGGRPGGRGAPAVQQNIPSTLLQDHENQRLFEMLGRKCLTLATAVVQLYLALPPGAEHWTKEHCGAVCFVKDNPQKSYFIRLYGLQAGRLLWEQELYSQLVYSTPTPFFHTFAGDDCQAGLNFADEDEAQAFRALVQEKIQKRNQRQSGDRRQLPPPPTPANEERRGGLPPLPLHPGGDQGGPPVGPLSLGLATVDIQNPDITSSRYRGLPAPGPSPADKKRSGKKKISKADIGAPSGFKHVSHVGWDPQNGFDVNNLDPDLRSLFSRAGISEAQLTDAETSKLIYDFIEDQGGLEAVRQEMRRQEPLPPPPPPSRGGNQLPRPPIVGGNKGRSGPLPPVPLGIAPPPPTPRGPPPPGRGGPPPPPPPATGRSGPLPPPPPGAGGPPMPPPPPPPPPPPSSGNGPAPPPLPPALVPAGGLAPGGGRGALLDQIRQGIQLNKTPGAPESSALQPPPQSSEGLVGALMHVMQKRSRAIHSSDEGEDQAGDEDEDDEWDD
Take B1: the “decrease in DGK activity of total homogenates of 293T cells co-transfected with myc-DGKα and FLAG-WASp, against myc-DGKα with GFP control vector” value was around 50%.
